Consider one substance from patent US20240164355.

In this series the target is Ubiquitin-AMC (Ub-AMC) (UniProt P0CG48).

Take CidB* (CidB-C1025A catalytic mutant): the Ub-AMC hydrolysis entry was “The CidB-C1025A catalytic mutant was inactive against Ub-AMC (data not shown)”.
